The source of these data is a protein production outcome set (Wang et al. 2014).

This data set is described as follows: label from the status in PepcDB records.
In the case of “MLHDWGVIAAALAYIGFLFVVASWGDRLSQGQRERAGGLIYPLSLAIYCTSWTFFGSVGFASRSSFDFLAIYVGPVLVVLVATPLLRRVIRLAKSQNITSIADFIAARYGKSQKVAATVAIIAIIGSVPYIALQLKAVSSSLQTILGDDHNIADIPIVGDIALIVAMAMALFTVLFGTRQASATEHQHGLMLAVATESIVKLVAFLAAGIFVTFWMFSPSALIERAMQMPEAVRALDSTSPANFLTMTALSFCAFMMLPRQFHVSVVENSNEAEVGRARWLFPLYLVAINLFVIPIALAGLVKFPFGKVDSDMYVLALPIDADAPMLSVAVFIGGLSAATAMVIVECVALAVMVSNDLVMPLVLKRHGAPRPDEQRNFGRFLLTVRRVAIFAILILAYLYYRALGNTQLAAIGLLSFAAIAQFAPSFFGGLIWRRATARGAIGGLLVGFAVWAYTLFIPSFMENSTTGLLLLQHGPWGIEALRPQALFGSDLPPLLHGVLWSLSLNLIAYILLSLLRQPSSIERLQAEVFVPDALTPMTPAFRRWRTTVTVQDIVGAVSQYLGPERARDSFRSFAAGRRITLDPAAPADFELLKHAEHLIASSIGAASSRLVLSLLLRKRTVSAEAALKLLDDSHAALHFNREILQTALNHVRQGIAVFNPELQLICSNRQFGEILGLPPHIIQIGIPLIEILEFLASNSIAPIDAEAHTQMRMAAYTTEGEPFIERFPDRHLVVEVRANRMPDGGLVITFSDVTPSFEAAEALERANATLERRVRERTEELTRLNSQLALAKSTAEEANISKTRFLAAASHDILQPLNAARLYATSLVERQNGGEDSRLVENIDESLQAIEEIIGALLDISRLDAGAMTPSLSNFVIGDLMRSLEIEFSPTARAKGLELTFVPCSLPVQSDRLMLRRLMQNLISNAIKYTPQGRVLVGCRRQGQSLRIGIYDTGVGVPILKRGEIFKEFHRLEQGARIARGLGLGLSIVERLARVLNHGIALDSNRGGGSCFSVTVPVAEAVNHTAAVTSATPLSRASMSGILVVCIENDPAILDGMKTLLTTWDAKVIAVADPEAAIRAIESSEQRVTGLLVDYHLDRGNGIAAIREIRARFGQSIPAILITADRSPGVRASARQEEIAVLNKPVKAASLRALLSQWHAQQSVVAAE”, the protein production entry is listed as “failed”. The entry for “MRKILEKVRRNRTYSFGKDLYDRTMRDDVAGLAAQLAYFFLLAIFPGLVFLITLLGFIDLQTESVLNLLEPYVPEDAMSLIEVNVDKVVNEQNGGLLSFGLLSMLWFASNGVNAVMNAFNRAYDVTETRSFIKTRALSIVFTLAIIFMIVFALIVPVFGQVIGAAVFKAIGLSDSFSYVWSITRLVASFFVLFALFSFLYTFAPDRKLKRREVISGATFATVGWIVVSYSFAYYVDKFANYANTYGGLGGIIILMLWFYLTGWVILLGGEINGLLHHYRTGDNNSRNEK” is “failed”; for “MQSPNNDYNATSKRGWFTRFLDGVEWLGNLLPHPITLFAVFCLFIIFISGIAAYFGVSAVDPRDGETVIKAVSLLNAEGIQRIVTNLVTNFTGFTPLGTVLVALLGVGVAERSGLISAAMRGLVMKAPPRLVTVTIVFAGVISNTAAELGYVVLVPLAAMIFYGLGRHPLAGLSAAFAGVSAGYSANLLIGTVDPLLSGITEEAAKIIDPAYTVGAEANWYFMMVSTFLIAIMGALITDKIVEPKLGKYNKDEASIDLSDQSSMDPLNKQEKRGLIYAGLSVLVLAGILALTVVPEWGILRHPETGDVKGSPFLKGVVVYIFFFFAIPGFVYGRTVETMRNDRDVIDAMSHSMSTMGMYIVLVFFAAQFVNFFKWTNFGTIFAINGAEFLTNIGMTGPIIFLFFIMVCGFVNLMLGSASAQWAITAPIFVPMLMLVGYSPEVIQAAYRIGDSVTNVITPMMSYFGLILAVAARYKKDLGIGTLVAMMLPYSMFFFVGWSVLFFLWVFVFGFPVGPAAPTYYN” it is “not failed”.

For “MGVLAEVYEMLNTCNRCGFCHTACKTYKVDGAETMVSRGRVQLIKAVADGVIEADADYEDSINSCLLCGECAVACPSGVSAKELVMAARRDLKLRHGLEHHHHHH”, the protein production entry is “not failed”. “MTGKKRSASSSRWLQEHFSDKYVQQAQKKGLRSRAWFKLDEIQQSDKLFKPGMTVVDLGAAPGGWSQYVVTQIGGKGRIIACDLLPMDPIVGVDFLQGDFRDELVMKALLERVGDSKVQVVMSDMAPNMSGTPAVDIPRAMYLVELALEMCRDVLAPGGSFVVKVFQGEGFDEYLREIRSLFTKVKVRKPDSSRARSREVYIVATGRKP”: the protein production entry is listed as “not failed”. The entry for “MIGGSLDAFIGSVHRMAAALDGTIELVCGAFSSNAARSIQTGEALHLPKERIYASYEEMIVQEAQLPADVRMQFVSIVTPNHLHAQPALLALKHGFHVLCEKPLAFSVAEAEQLGIQVKETGLLFGLTHTYTAYPMVKEARDLIAKGKLGTIRKIIVEYPQGWLSAPIESDGQKQAGWRTDPAQAGLSCCVGDIGTHAENIAEYITGLKITELSADVSSVVAGRKLDDDANILLRFDNGAKGVLIASQIANGEENELKIRVYGEHAGLEWLQSEPNTLIVKQNDQPTQLRRAGANHSYLSEHARLHCRIPAGHPEGYIEAMANIYRNFSKAVHSFEDQITHNPLLDYPTIEDGIRGMKFIETVIISGKENATWKQLLEHHHHHH” is “not failed”; for “MDTIQKRPRTRLSPEKRKEQLLDIAIEVFSQRGIGRGGHADIAEIAQVSVATVFNYFPTREDLVDDVLNKVENEFHQFINNSISLDLDVRSNLNTLLLNIIDSVQTGNKWIKVWFEWSTSTRDEVWPLFLSTHSNTNQVIKTMFEEGIERNEVCNDHTPENLTKMLHGICYSVFIQANRNSSSEEMEETANCFLNMLCIYK” it is “failed”. In the case of “MMNTTTLDRYFDLFDASRTDEKAFDDLISLFSDEITFVLNGQEQHGIDAWKQFVRMVFTANQDIKHMYAGWVPSETGDTMETRWAVCGKSADGSVFTQDGTDIARLNADGKIVYLANVPDDTAMFNQYND”, the protein production entry was “not failed”. As for “MIQLKNVGITLSGKGYERFSLENINLEVNGEKVIILGPNGSGKTTLLRAISGLLPYSGNIFINGMEVRKIRNYIRYSTNLPEAYEIGVTVNDIVYLYEELKGLDRDLFLEMLKALKLGEEILRRKLYKLSAGQSVLVRTSLALASQPEIVGLDEPFENVDAARRHVISRYIKEYGKEGILVTHELDMLNLYKEYKAYFLVGNRLQGPISVSELLESSIVEGERNDALLVLDIMDKKVSIVKGDLGMKFGALGSLNRIYGIIGA”, the protein production entry is on record as “not failed”. The entry for “MDNTRSVYGIDLGTTYSCIAQVDKFDQAIVLRNFEGDATTPSAVYFEDMDHVVVGKEAKGMLATEPTKTAVFIKRHIGVDDSFDKNTNEFPYHYDPTEISAFILKKLVKDANDLGDNPEPIKDVVITCPAYFGTKERMQTKQAGEIAGLNVLSIINEPTAAAISYGVKTDQKKTVLVYDLGGGTFDVTLINVNGGAIKVIATGGDHHLGGVDWDTALAEYMLAAFNEQNNTSYSFEDRLDLKYELLLLAEDKKKVLTAKQTAKATYQYEGNSARIEISRELFNSLTERKLDETIDATKKVIAIAKEKGYNNIDEILLVGGSSRMPQIKERVDKEFNCDAKLTDPDECVAKGAAIYAMNAAYSQAVRDYEEGESDDKPAPLRGDRTTVVNVTSKTYGTDVIIEGQSMVQNLIFANSSLPTKRIETFTTSIPNQRGVSVKVFESDFTNMETESIVEERFCTLIDDHTLKLSKDWPQGTQISVTYQIDQEGILHGLAYVENDKLEFDLKITGVKCEEELRKSKAIIDKASVE” is “failed”.

For “MMMEEKLVINELELGKELANRLMNNLKHTSSVDSNKTLISDILRIYQNAIFMLSFNQDKNILKRSLEIDGKDSKNVFKKRKVSEKNTEKVKVFVATEQENGSIDDGHCWRKYGQKEIHGSKNPRAYYRCTHRFTQDCLAVKQVQKSDTDPSLFEVKYLGNHTCNNITSPKTTTNFSVSLTNTNIFEGNRVHVTEQSEDMKPTKSEEVMISLEDLENKKNIFRTFSFSNHEIENGVWKSNLFLGNFVEDLSPATSGSAITSEVLSAPAAVENSETADSYFSSLDNIIDFGQDWLWS”, the protein production result is on record as “failed”. The entry for “MNYDDPKKKVGRNIKRLRLKAGIKSQAALAELCGWKSQSRVGNYEAGTRAVSAIDAETLAKVLNVTPAEILYGENNKDDDFVSMPSAQYSSGPYEEEDPFQLFKPKQELQNAEWHAGFELWDGDTPLRDDEVALPFYREVELAAGSGSTFVQENGGCKLRFAKSTLKKSRVEPSNAACVTVSGNSMLPVLRHGTTVGVDTSKKSIIDGEMYAIDHDGMLRVKMLYRTPGGGIRIKSYNNDEFPDEFIPPEKASDIKIIGWVFWWSVLNVWNN” is “failed”; for “MSNSQWVPVSLNEYLAHLPMSDEQRAELASCTTFAELHERLSAQPVTDPAEAAQASVGRRLTLSADDLEDAEMLGVDASGRLCLKATPPIRRTKVVPEPWRTNILVRGWRRLTGKSNPPKPDHSDLPRDLPKSRWRTVGSIRRYILLILMLGQTIVAGSYMKGILPYQGWSLVSLDEITRQTFVQTALQVLPYALQTSILLLFGILFCWVSAGFWTALMGFLELLTGRDKYRISGASAGNEPIEAGARTALVMPICNEDVPRVFAGLRATFESVAATGNLDRFDFFVLSDTNETDIAVAEQQAWLDVCRETKGFGSIFYRRRRRRVKRKSGNLDDFCRRWGGEYRYMVVLDADSVMSGECLTSLVRLMEATPDAGIIQTAPRASGMDTLYARMQQFATRVYGPLFTAGLHFWQLGESHYWGHNAIIRMKPFIEHCALAPLPGKGAFAGAILSHDFVEAALMRRAGWGVWIAYDLPGSYEELPPNLLDELKRDRRWCHGNLMNFRLFLVKGMHPVHRAVFLTGVMSYLSAPLWFFFLVLSTALLAVNTLMEPTYFLEPRQLYPLWPQWHPERAVALFSTTIVLLFLPKLLSVILIWAKGAKGFGGKFKVTVSMLLEMLFSVLLAPVRMLFHTRFVLAAFLGWAATWNSPQRDDDSTPWLEAVKRHGPQTLLGACWALLVFWLNPSFLWWLAPIVVSLMLSIPVSVISSRTNLGLKARDEKFFLIPEEFEPPQELVSTDQYTHENRWHALKQGFIRAVVDPRQNALACALATSRHRQAQPIEVVRMERVDHALKVGPAKLDNQHRLMLLSDPVALGRLHERVWSEGHEEWLAAWRASIEADPHAPLLPLQPVVKAPEPVLV” it is “failed”; for “MSTSSTQHAAPAFTGFSSSAQAMSLVAFTTVATITLLLCVMTGPDRDDLEEFYTGYGSLSPMRNGLAIAGDYISAATVLGTGGVIALTGYDGVVLALSTALSLMLLMFLLAEPLRNAGQFTMGDALARRMPGRAVRVTACVVTIAALLPLMLVQLAGTGDLLSFILGFSNDTLKTGCIIGLGALMISYAAIGGMKGTALIQIMKIVMLLGSGAVVAVLILHRFDWDPGALFSAAAAHSGAGPAFLRSGLEFAGGPNPRLDMITTELTVVLGGGCLPHVTMRMYTANSARQVRRSMSWAVPAVALFVLVITVVGFGATALVGREAIAAADPQGNTAYLLGSRAAFGPDVSSAETLLFTTVTTALFLTLLASVAGMILACANSLAHDVFAARVQEMSPRREMTLARLSALAVGVPTILLATLVHHRSLQPLVTLSFCIGASAIAPALVYGLFWRRYTRTGLLCTLIGGTLSVVLLLPGTNLVTGSPAAAFPDADFNWFPFTTTGLATIPLGFLLGWLGTLLSGRQKAEAQRRQYEAVEGWILAGAVRRSG” it is “failed”. The entry for “MDGALRNRSARVVDSEHRTHPPGIRRSVCWSLLALDSRLHGRTSTQDRQVGCGRLWCRPSEARCGAMKLLVTGGGGFLGQALCRGLRARGHEVVSFQRGNYPVLRSLGVGQIRGDLADPQAVRHALAGIDAVFHNAAKAGAWGSYDSYHQANVVGTQNVIEACRATGVPRLIYTSTPSVTHRATNPVEGLGADEVPYGDNLRAAYAATKAIAERAVLAANDAQLATVALRPRLIWGPGDNHLLPRLAARARAGRLRMVGDGSNLVDSTYIDNAAQAHFDAFEHLAVGAACAGKAYFISNGEPLPMRELLNRLLAAVDAPAVTRSLPFKTAYRIGAVCETLWPLLRLPGEVPLTRFLVEQLCTPHWYSMQPARRDFGYVPRISIEEGLQRLRSSSSNDIAITG” is “failed”.
